In the supplement of paper PMC10567573:

B1: KLHL14 (parent)
chain: CAVLDDSIYLVGGYSWSMGAYKSS

Variants of: B1
Experiment: protein stability index of a GFP-peptide fusion (GPS, HEK-293T) (PSI 1-6); higher = more stable
Details: c terminus: a fixed tail appended
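Note: lentivirally expressed fusions sorted by FACS into six bins by GFP to DsRed ratio, PSI derived from sequencing read proportions per bin multiplied by bin number.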

Protein stability index of substitutions, site by site:
M18: A 2.89, G 1.68, C 2.26, D 2.09, W 3.11, H 2.5, R 2.11, L 2.48, Y 2.48, K 1.91, S 1.73, I 3.21, N 1.46, P 1.62, T 2.15
G12: A 3.1, I 2.47, F 2.23, L 2.9, P 2.79, R 2.52, H 2.92, C 3.07, M 2.24, Q 2.89, V 2.65, N 3.82, E 3.21, Y 1.55, S 1.46, D 2.39
Y14: P 1.91, V 2.19, W 2.93, K 1.73, T 1.44, G 1.2, S 1.83, R 1.74, D 2.23, H 1.83, E 1.69, N 1.53, M 2.42, L 1.86, F 2.66, C 2.15, A 1.55
W16: I 2.35, Y 2.02, R 1.78, A 1.78, N 1.89, Q 1.8, D 2.14, V 1.03, F 2.87, H 1.79, M 3.09, K 1.94, E 2.53
L4: N 3.26, Y 2.19, I 2.15, T 2.78, K 2.18, V 1.79, M 2.96, C 1.78, H 2.12, S 1.49, W 1.6, G 1.55, D 2.19, P 1.74, R 2.33
Y9: A 1.66, R 3.35, H 2.3, Q 1.62, C 3.86, M 3.37, E 2.28, P 2.22, T 2.18, G 1.28, S 1.51, L 3.26, K 1.36, D 2.37, N 1.56, W 2.43
I8: W 1.8, T 3.78, D 2.22, A 2.44, R 1.64, V 2.52, K 1.77, Y 2.96, E 1.13, H 1.93, C 3.23, L 2.23, S 1.73, P 1.93, M 2.62
S7: C 3.58, T 1.52, F 2.81, G 3.23, V 2.46, P 2.54, M 2.99, L 3.32, E 1.99, Y 3.75, Q 3.47, A 2.04, H 2.24, R 1.84
A2: Q 1.93, F 2.84, D 1.04, S 1.59, E 2.37, L 2.18, R 1.3, N 2.05, W 2.5, M 3.27, G 1.04, H 1.85, Y 2.32, I 2.13, P 1.61
K22: G 2.66, Q 1.44, R 3.14, N 2.69, I 2.6, D 3.84, A 3.59, C 1.85, L 3.43, V 3.73, H 3.04, T 2.27, M 4.12
V11: S 2.21, G 1.93, F 1.6, C 1.91, A 1.94, H 1.88, D 1.94, Y 2.44, N 2.2, M 3.05, K 2.1, T 1.83, Q 1.79, P 1.56, E 2.33, L 1.72
V3: M 2.9, E 2.77, F 2.85, R 2.4, H 1.67, G 1.48, P 2.58, W 2.71, Y 1.57, D 1.57, Q 2.39, I 2.56
C1: L 2.09, N 1.74, E 1.3, T 1.43, D 2.42, A 1.72, F 3.37, R 2.03, S 1.7, K 2.42, M 1.5, P 2.28, Q 1.73
Y21: M 2.65, T 1.24, R 2.45, D 2.43, P 2.44, H 2.64, K 2.14, N 2.25, V 2.6, A 2.91, I 2.99, E 1.45, F 3.42, L 2.68, G 1.08, Q 2.35, S 2
D6: H 2.9, S 2.61, P 2.97, I 3.34, R 3.76, K 1.35, Q 1.95, W 3.66, Y 1.86
G19: A 2.33, C 3, R 2.98, F 3.41, K 2.23, T 2.01, P 1.96, S 2.83, I 2.9, Y 3.83, L 3.64, H 3.16
S24: D 1.06, N 2.53, K 2.36, C 2.32, F 2.96, Q 2.2, G 1.65, I 3.41, A 4.41, E 2.32, Y 3.04, T 3.12
S23: Y 1.98, T 2.72, N 1.79, I 2.8, K 2.43, D 1.96, P 1.58, M 2.48, Q 2.73, A 2.92, L 5.74, G 1, H 1.57
L10: A 1.55, S 1.83, E 1.33, T 1.96, M 1.95, R 2.45, Y 2.08, C 3.76, F 3.26, K 2.05, P 1.1, W 3.36, Q 1.23, I 1.68, N 1.98
S15: E 1.03, K 2.83, A 3.83, T 2.38, Q 2.44, I 2.56, D 2.34, Y 1.87, H 1.65, F 2.58, G 2.88, R 1.86, W 2.25, N 2.28, P 2.77, M 4.83, V 3.31
D5: Y 1.54, G 1.41, S 2, V 2.29, M 4.24, N 4.88, A 2.24, P 2.72, F 3.77, L 3.33, E 2.7
S17: M 1.49, W 3.53, G 2.69, V 1.96, K 2.48, E 2.25, T 2.27, I 1.92, N 1.53, D 1.52, Y 2.9, H 1.98, L 3.11
G13: M 3.5, F 2.97, H 3.56, D 1.98, A 3.61, V 1.27, N 2.32, R 2.08, W 3.56, Q 2.49, P 1.73, T 3.26
A20: H 2.31, D 2.27, R 1.74, Q 3.05, C 2.64, F 2.88, Y 2.9, N 3.33, P 1.33, K 1.11, W 2.87, V 2.02, T 3.02
